Measured values taken from PMC10359635, “Cas1–Cas2 physically and functionally interacts with DnaK to modulate CRISPR Adaptation”.

What was measured:
[1] = biological target: DnaK (Escherichia coli (K-12 MG1655), UniProt P0A6Y8 1-638); assay: EMSA; mixed with Cy5-ssDNA; EMSA: 20 nM Cy5 fork, 20 mM Tris pH 8.0, 0.1 mg/ml BSA, 7% glycerol (25% after DnaK addition); proteins diluted in 20 mM Tris pH 8.0, 100 mM NaCl, 1 mM DTT; Cas1 preincubated 5 min, then 25 min at 37 C; 5% native acrylamide gel; conditions: protein: recombinant; tags: N-terminal 6xHis; label: 5'-Cy5 on MW14; fork: 24 bp duplex 1:2-25 2:27-50; 3' arm of strand 1 25 nt, 5' arm of strand 2 26 nt; 1 nt 5' overhang on strand 1
[2] = biological target: T1, Cas1 (Escherichia coli, UniProt Q46896 1-305); assay: EMSA; mixed with Cy5-ssDNA decoy; aggregates in wells at highest Cas1; EMSA: 20 nM Cy5 fork, 20 mM Tris pH 8.0, 0.1 mg/ml BSA, 7% glycerol (25% after DnaK addition); proteins diluted in 20 mM Tris pH 8.0, 100 mM NaCl, 1 mM DTT; Cas1 preincubated 5 min, then 25 min at 37 C; 5% native acrylamide gel; conditions: protein: recombinant; tags: C-terminal Strep-tag II; chain copies: 2; label: 5'-Cy5 on MW14; fork: 24 bp duplex 1:2-25 2:27-50; 3' arm of strand 1 25 nt, 5' arm of strand 2 26 nt; 1 nt 5' overhang on strand 1
T1 sequence: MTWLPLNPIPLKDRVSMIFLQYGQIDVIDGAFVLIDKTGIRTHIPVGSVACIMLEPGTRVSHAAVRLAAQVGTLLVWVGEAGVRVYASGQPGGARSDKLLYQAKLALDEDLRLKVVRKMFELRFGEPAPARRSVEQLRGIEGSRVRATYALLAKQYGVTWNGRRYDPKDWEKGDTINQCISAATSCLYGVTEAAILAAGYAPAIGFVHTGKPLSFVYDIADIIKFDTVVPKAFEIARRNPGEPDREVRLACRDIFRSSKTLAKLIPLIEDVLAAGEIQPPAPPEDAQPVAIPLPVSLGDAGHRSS

[3] = biological target: DnaK S427P (Escherichia coli (K-12 MG1655), UniProt P0A6Y8 1-638, S427P); assay: EMSA; EMSA: 20 nM Cy5 fork, 20 mM Tris pH 8.0, 0.1 mg/ml BSA, 7% glycerol (25% after DnaK addition); proteins diluted in 20 mM Tris pH 8.0, 100 mM NaCl, 1 mM DTT; Cas1 preincubated 5 min, then 25 min at 37 C; 5% native acrylamide gel; conditions: protein: recombinant; tags: N-terminal 6xHis; label: 5'-Cy5 on MW14; fork: 24 bp duplex 1:2-25 2:27-50; 3' arm of strand 1 25 nt, 5' arm of strand 2 26 nt; 1 nt 5' overhang on strand 1

B1: Fork (flayed duplex MW12/MW14) (dsDNA)
DNA 1: GTCGGATCCTCTAGACAGCTCCATGATCACTGGCACTGGTAGAATTCGGC
DNA 2: CAACGTCATAGACGATTACATTGCTACATGGAGCTGTCTAGAGGATCCGA
What does the source list for B1?
binding result [1]: no binding; binding result [2]: binds; binding result [3]: no binding
